Assay results taken from the supplement of paper PMC10567573.

B1: TOR1AIP2 (parent)
chain: SPGHSSAGQEGEDTLRRRLLAPEA

Variants of: B1
Assay: protein stability index of a GFP-peptide fusion (GPS, HEK-293T) (PSI 1-6); higher = more stable
Conditions: c terminus: a fixed tail appended
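Also: lentivirally expressed fusions sorted by FACS into six bins by GFP to DsRed ratio, PSI derived from sequencing read proportions per bin multiplied by bin number.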

Protein stability index: each site, then its substitutions
E12: M 3.53; H 3.73; L 3.33; V 3.22; K 3.98; D 3.97; F 3.1; C 4; I 3.73; R 3.84; T 3.6; P 3.59; Y 3.22; S 3.3; W 3.19; G 3.73; A 3.48; Q 3.38; N 3.81
L15: W 3.92; R 5.01; G 5.44; E 5.35; A 5.47; H 5.13; I 4.53; Q 4.98; F 4.3; T 5.31; P 5.23; S 5.16; D 5.7; N 5.49; K 4.96; Y 4.89; M 4.79; V 4.93; C 3.98
G11: A 4; R 4.64; I 3.82; T 4.62; D 4.64; V 4.04; W 3.6; S 4.48; L 4.13; M 4.15; P 4.05; K 4.5; C 3.88; Y 3.39; Q 4.38; E 4.6; N 4.46; F 3.49; H 4.07
E10: T 3.81; W 3.42; H 3.61; A 3.75; S 4.06; L 3.31; P 3.94; C 2.67; N 3.72; I 3.63; Y 3.51; R 3.62; M 3.58; D 3.94; V 4.04; F 3.68; K 3.27; Q 3.88; G 3.91
A7: M 3.79; L 3.73; K 3.66; T 4.18; V 4.25; E 4.47; N 3.76; I 3.92; R 3.82; Y 3.9; W 3.89; H 3.77; G 4.21; Q 4.24; D 4.56; F 4.16; C 3.45; P 3.42; S 4.01
R18: W 2.51; N 4.98; S 5.01; K 4.83; G 5.1; L 2.99; I 3.07; M 3.29; V 4.14; F 2.84; E 5.45; T 4.58; H 4.6; Y 2.94; A 4.8; Q 3.89; P 5.5; D 4.89; C 4.4
L19: T 5.55; I 3.39; S 5.24; Q 5.33; Y 4.86; D 5.35; V 4.9; P 5.29; M 3.39; H 5.52; C 4.99; K 5.54; N 5.34; R 4.89; W 4.3; A 5.4; G 5.45; F 4.73; E 5.46
A21: G 5.31; D 5.37; K 4.89; F 4.71; M 4.19; H 5.26; E 5.23; I 4.51; L 4.58; C 3.31
T14: W 4.5; D 4.18; E 4.4; V 3.97; K 4.94; P 4.33; M 4.34; L 4.84; Q 4.11; C 2.67; I 4.42; N 3.63; G 4.41; R 4.65; A 4.06; S 3.08; F 4.39; H 4.33; Y 4.2
S6: I 3.42; Y 3.73; K 3.97; L 4.18; G 3.66; E 4.51; T 4.36; P 4.26; R 4.46; M 4.02; C 3.9; W 3.97; H 4.23; F 2.94; N 3.75; A 4.36; V 3.24; D 4.48; Q 4.65
L20: Q 5.63; I 4.94; P 5.15; R 5.26; T 5.33; W 4.73; E 4.9; G 5.54; F 3.94; V 5.21; N 5.25; K 5.38; M 5.01; C 5.49; A 5.64; D 4.7; Y 4.51; H 5.29; S 4.95
H4: I 3.92; D 4.89; Y 3.84; T 4.14; A 4.22; S 4.39; C 3.71; E 4.15; V 3.81; L 3.85; N 4.13; K 3.52; R 3.76; Q 3.82; M 3.38; F 4.3; G 4.08; P 4.49; W 3.98
R16: M 4.6; E 5.46; A 5.37; F 4.71; C 5.14; P 4.9; Q 5.34; Y 4.44; N 5.23; T 5.04; L 4.61; V 5.51; W 3.52; D 5.68; G 5.41; H 5.38; I 5.06; S 5.63; K 4.79
Q9: A 4.35; E 4.31; I 4.08; N 4.05; V 3.98; S 4.24; K 4.02; L 3.58; P 4.53; Y 3.68; H 3.83; T 3.96; G 2.94; C 3.22; D 3.84; F 4.11; W 3.04; R 3.5; M 3.43
D13: K 4.52; G 4.1; A 3.19; S 3.67; V 4.15; Q 4.09; P 4.53; Y 2.8; E 4.73; I 3.88; T 3.65; W 2.96; F 3.02; C 4.05; R 3.32; N 4.27; M 3.06; L 3.77; H 4.31
G3: Y 3.83
S5: P 4.14; M 4.49; L 3.9; Q 4.64; T 4.46; C 3.37; V 4.3; E 4.64; Y 4.09; I 3.78; R 4; G 4.11; A 3.84; F 4; D 4.75; K 3.86; N 4.42; W 4.63; H 4.35
R17: C 4.51; Q 4.37; G 5; Y 2.48; L 3.31; I 3.81; P 5.04; E 4.42; T 4.58; N 4.67; M 3.54; A 4.63; V 3.9; K 4.76; F 2.09; H 3.85; W 2.36; D 5.46; S 4.71
G8: I 4.53; K 4.19; D 4.51; E 4.5; C 4.46; P 4.53; L 4.21; F 3.34; Q 4.33; H 4.69; M 4.05; V 4.43; N 4.05; W 4.19; R 4; Y 3.79; T 4.61; A 4.24; S 4.42
